B1: NCV2SG53 monoclonal antibody (human IgG) (antibody, V domains shown)
VH: QVQMVESGGGLVRPGGSLRLSCAASGFTFSDYYMSWIRQAPGKGLEWISYISSSGSSMNYADSVKGRFTISRDNAKNSLFLQMNSLRAEDTAVYYCAREFDLTKIIMVPPYWGQGTLVTVSS
VL: AIQLTQSPSSLSASVGDRVTITCRASQGISSYLAWYQQKPGKAPKVLIYAASTLQSGVPSRFSGSGSGTDFTLTISSLQPEDFATYYCQQLKSYPLTFGGGTKVEIT
B2: NCV2SG48 monoclonal antibody (human IgG) (antibody, V domains shown)
VH: EVQLVESGGGLIQPGGSLRLSCAASGFIVSRNYMNWVRQAPGKGLEWVALIYSGGSTFYADSVKGRFTISRDNSKNTLYLQMNSLRAEDTAVYYCARDLVVYGLDYWGQGTLVTVSS
VL: AIQLTQSPSSLSASVGDRVTITCRASQGISSHLAWYQQKPGKAPKLLIFAASTLQSGVPSRFSGSGSGTDFTLTISSLQPEDFATYYCQHLNSNPPITFGQGTRLEIK

Columns and labels:
[1] = target: T1, SARS-CoV-2 spike RBD, Wuhan-Hu-1 (SARS-CoV-2, UniProt P0DTC2 321-536); assay: BLI
[2] = target: T1, SARS-CoV-2 spike RBD, Wuhan-Hu-1; assay: BLI; remark: listed apart in the source

Binder | Kd [1] | koff [2]
B1 | 2.6 nM | 0.00022 s⁻¹
B2 | 2.5 nM | 0.00015 s⁻¹
